Assay results taken from the RNAGym collection of RNA variant scans (doi:10.1093/molbev/msab373).

B1: Azoarcus group I ribozyme (parent)
chain: GUGCCUUGCGCCGGGAAACCACGCAAGGGAUGGUGUCAAAUUCGGCGAAACCUAAGCGCCCGCCCGGGCGUAUGGCAACGCCGAGCCAAGCUUCGGCGCCUGCGCCGAUGAAGGUGUAGAGACUAGACGGCACCCACCUAAGGCAAACGCUAUGGUGAAGGCAUAGUCCAGGGAGUGGCGAAAGUCACACAAACCGG

Variants of: B1
Assay: reverse-splicing fitness (ratio to wild type); higher = more active; in vitro selection; Mg2+ level not given
In short: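 An in vitro group I ribozyme library with randomized positions was T7-transcribed and gel-purified. In triplicate, 10 pmol RNA in EPPS pH 7.5 was reacted with 50 pmoles of a 30-nt RNA substrate for 1 h at 37 °C across several added MgCl2 levels (1–48 mM), then stopped with EDTA. Products were reverse transcribed from a substrate-complementary primer, PCR-amplified and sequenced (HiSeq 4000). Fitness is a variant's read proportion after selection over that before, normalised to wild type.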

Variant	reverse-splicing fitness
GUGCCUUGCGCCGGGAAACCACGCAAGGGAUGGUGUCAAAUUCGGCGAAACCUAAGCGCCCGCCCGGGCGUAUGGCAACGCGGAGCCAAGCUUCGGCGCCUGCGCCGAUGGAGGUGUAGCGACUAGACGGCACCCACCUAAGGCCAACGUUAUGGUGAAGGCAUAGUCGAGGGAGUGGCGAAAGUCACACAAACCGG [C82G A111G A120C A145C C150U C169G]	0.00849
GUGCCUUGCGCCGGGAAACCACGCAAGGGAUGGUGUCAAAUUCGGCGAAACCUAAGCGCCCGCCCGGGCGUAUGGCAACGCGGAGCCAAGCUUCGGCGCCUGCGCCGAUGGAGGUGUAGCGACUAGACGGCACCCACCUAAGGCCAACGUUAUGGUGAAGGCAUAGUCAAGGGAGUGGCGAAAGUCACACAAACCGG [C82G A111G A120C A145C C150U C169A]	0.00918
GUGCCUUGCGCCGGGAAACCACGCAAGGGAUGGUGUCAAAUUCGGCGAAACCUAAGCGCCCGCCCGGGCGUAUGGCAACGCGGAGCCAAGCUUCGGCGCCUGCGCCGAUGGAGGUGUAGCGACUAGACGGCACCCACCUAAGGCCAACGUUAUGGUGAAGGCAUAGUCUAGGGAGUGGCGAAAGUCACACAAACCGG [C82G A111G A120C A145C C150U C169U]	0.0103
GUGCCUUGCGCCGGGAAACCACGCAAGGGAUGGUGUCAAAUUCGGCGAAACCUAAGCGCCCGCCCGGGCGUAUGGCAACGCGGAGCCAAGCUUCGGCGCCUGCGCCGAUGGAGGUGUAGCGACUAGACGGCACCCACCUAAGGCCAACGGUAUGGUGAAGGCAUAGUCUAGGGAGAGGCGAAAGUCACACAAACCGG [C82G A111G A120C A145C C150G C169U U176A]	0.00714
GUGCCUUGCGCCGGGAAACCACGCAAGGGAUGGUGUCAAAUUCGGCGAAACCUAAGCGCCCGCCCGGGCGUAUGGCAACGCGGAGCCAAGCUUCGGCGCCUGCGCCGAUGGAGGUGUAGCGACUAGACGGCACCCACCUAAGGCCAACGGUAUGGUGAAGGCAUAGUCUAGGGAGGGGCGAAAGUCACACAAACCGG [C82G A111G A120C A145C C150G C169U U176G]	0.00551
GUGCCUUGCGCCGGGAAACCACGCAAGGGAUGGUGUCAAAUUCGGCGAAACCUAAGCGCCCGCCCGGGCGUAUGGCAACGCGGAGCCAAGCUUCGGCGCCUGCGCCGAUGGAGGUGUAGCGACUAGACGGCACCCACCUAAGGCCAACGGUAUGGUGAAGGCAUAGUCUAGGGAGCGGCGAAAGUCACACAAACCGG [C82G A111G A120C A145C C150G C169U U176C]	0.0131
GUGCCUUGCGCCGGGAAACCACGCAAGGGAUGGUGUCAAAUUCGGCGAAACCUAAGCGCCCGCCCGGGCGUAUGGCAACGCGGAGCCAAGCUUCGGCGCCUGCGCCGAUGGAGGUGUAGCGACUAGACGGCACCCACCUAAGGCCAACGCUAUGGUGAAGGCAUAGUCAAGGGAGUGGCGAAAGUCACACAAACCGG [C82G A111G A120C A145C C169A]	0.00695
GUGCCUUGCGCCGGGAAACCACGCAAGGGAUGGUGUCAAAUUCGGCGAAACCUAAGCGCCCGCCCGGGCGUAUGGCAACGCGGAGCCAAGCUUCGGCGCCUGCGCCGAUGGAGGUGUAGCGACUAGACGGCACCCACCUAAGGCCAACGUUAUGGUGAAGGCAUAGUCUAGGGAGGGGCGAAAGUCACACAAACCGG [C82G A111G A120C A145C C150U C169U U176G]	0.00553
GUGCCUUGCGCCGGGAAACCACGCAAGGGAUGGUGUCAAAUUCGGCGAAACCUAAGCGCCCGCCCGGGCGUAUGGCAACGCGGAGCCAAGCUUCGGCGCCUGCGCCGAUGGAGGUGUAGCGACUAGACGGCACCCACCUAAGGCCAACGUUAUGGUGAAGGCAUAGUCUAGGGAGCGGCGAAAGUCACACAAACCGG [C82G A111G A120C A145C C150U C169U U176C]	0.0121
GUGCCUUGCGCCGGGAAACCACGCAAGGGAUGGUGUCAAAUUCGGCGAAACCUAAGCGCCCGCCCGGGCGUAUGGCAACGCGGAGCCAAGCUUCGGCGCCUGCGCCGAUGGAGGUGUAGCGACUAGACGGCACCCACCUAAGGCCAACGUUAUGGUGAAGGCAUAGUCUAGGGAGAGGCGAAAGUCACACAAACCGG [C82G A111G A120C A145C C150U C169U U176A]	0.013
GUGCCUUGCGCCGGGAAACCACGCAAGGGAUGGUGUCAAAUUCGGCGAAACCUAAGCGCCCGCCCGGGCGUAUGGCAACGCGGAGCCAAGCUUCGGCGCCUGCGCCGAUGGAGGUGUAGCGACUAGACGGCACCCACCUAAGGCCAACGGUAUGGUGAAGGCAUAGUCGAGGGAGGGGCGAAAGUCACACAAACCGG [C82G A111G A120C A145C C150G C169G U176G]	0.006
GUGCCUUGCGCCGGGAAACCACGCAAGGGAUGGUGUCAAAUUCGGCGAAACCUAAGCGCCCGCCCGGGCGUAUGGCAACGCGGAGCCAAGCUUCGGCGCCUGCGCCGAUGGAGGUGUAGCGACUAGACGGCACCCACCUAAGGCCAACGGUAUGGUGAAGGCAUAGUCGAGGGAGCGGCGAAAGUCACACAAACCGG [C82G A111G A120C A145C C150G C169G U176C]	0.0101
GUGCCUUGCGCCGGGAAACCACGCAAGGGAUGGUGUCAAAUUCGGCGAAACCUAAGCGCCCGCCCGGGCGUAUGGCAACGCGGAGCCAAGCUUCGGCGCCUGCGCCGAUGGAGGUGUAGCGACUAGACGGCACCCACCUAAGGCCAACGGUAUGGUGAAGGCAUAGUCGAGGGAGAGGCGAAAGUCACACAAACCGG [C82G A111G A120C A145C C150G C169G U176A]	0.0112
GUGCCUUGCGCCGGGAAACCACGCAAGGGAUGGUGUCAAAUUCGGCGAAACCUAAGCGCCCGCCCGGGCGUAUGGCAACGCGGAGCCAAGCUUCGGCGCCUGCGCCGAUGGAGGUGUAGCGACUAGACGGCACCCACCUAAGGCCAACGUUAUGGUGAAGGCAUAGUCGAGGGAGGGGCGAAAGUCACACAAACCGG [C82G A111G A120C A145C C150U C169G U176G]	0.0061
GUGCCUUGCGCCGGGAAACCACGCAAGGGAUGGUGUCAAAUUCGGCGAAACCUAAGCGCCCGCCCGGGCGUAUGGCAACGCGGAGCCAAGCUUCGGCGCCUGCGCCGAUGGAGGUGUAGCGACUAGACGGCACCCACCUAAGGCCAACGUUAUGGUGAAGGCAUAGUCGAGGGAGCGGCGAAAGUCACACAAACCGG [C82G A111G A120C A145C C150U C169G U176C]	0.0152
